Our source for the Kd, binding result and koff values is article PMC6308234 (Scientific Reports, 2018).

T1: DENV-1 nonstructural protein 1 (NS1), recombinant (dengue virus serotype 1 (DENV-1))
T1 chain: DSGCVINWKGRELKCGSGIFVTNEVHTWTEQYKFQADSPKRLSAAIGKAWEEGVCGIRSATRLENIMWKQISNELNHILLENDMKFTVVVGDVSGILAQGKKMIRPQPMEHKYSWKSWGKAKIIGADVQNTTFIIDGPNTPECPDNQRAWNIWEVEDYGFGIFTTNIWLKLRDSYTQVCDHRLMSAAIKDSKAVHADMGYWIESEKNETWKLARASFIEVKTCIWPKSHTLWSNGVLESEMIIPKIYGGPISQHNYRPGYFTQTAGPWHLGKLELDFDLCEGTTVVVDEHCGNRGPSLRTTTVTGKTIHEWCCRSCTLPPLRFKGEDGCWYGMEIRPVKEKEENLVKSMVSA

T2: DENV-2 nonstructural protein 1 (NS1), recombinant (dengue virus serotype 2 (DENV-2))
T2 chain: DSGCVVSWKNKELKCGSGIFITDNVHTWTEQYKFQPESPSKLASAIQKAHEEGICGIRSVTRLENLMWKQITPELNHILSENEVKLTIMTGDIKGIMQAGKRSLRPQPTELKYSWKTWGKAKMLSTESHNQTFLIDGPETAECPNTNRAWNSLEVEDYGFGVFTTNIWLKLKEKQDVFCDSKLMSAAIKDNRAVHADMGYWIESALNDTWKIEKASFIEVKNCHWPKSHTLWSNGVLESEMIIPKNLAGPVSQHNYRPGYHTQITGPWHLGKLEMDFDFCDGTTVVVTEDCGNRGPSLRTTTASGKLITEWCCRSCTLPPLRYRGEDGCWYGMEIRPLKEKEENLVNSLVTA

T3: DENV-3 nonstructural protein 1 (NS1), recombinant (dengue virus serotype 3 (DENV-3))
T3 chain: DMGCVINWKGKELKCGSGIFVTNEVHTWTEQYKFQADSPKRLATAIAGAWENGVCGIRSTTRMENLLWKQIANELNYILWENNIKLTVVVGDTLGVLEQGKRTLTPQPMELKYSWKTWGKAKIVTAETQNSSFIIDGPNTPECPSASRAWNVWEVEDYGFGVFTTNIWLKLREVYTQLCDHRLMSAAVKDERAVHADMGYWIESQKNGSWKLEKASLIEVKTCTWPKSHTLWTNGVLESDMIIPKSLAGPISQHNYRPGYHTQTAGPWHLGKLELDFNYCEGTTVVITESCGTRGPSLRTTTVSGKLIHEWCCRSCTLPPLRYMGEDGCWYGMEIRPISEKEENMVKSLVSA

T4: DENV-4 nonstructural protein 1 (NS1), recombinant (dengue virus serotype 4 (DENV-4))
T4 chain: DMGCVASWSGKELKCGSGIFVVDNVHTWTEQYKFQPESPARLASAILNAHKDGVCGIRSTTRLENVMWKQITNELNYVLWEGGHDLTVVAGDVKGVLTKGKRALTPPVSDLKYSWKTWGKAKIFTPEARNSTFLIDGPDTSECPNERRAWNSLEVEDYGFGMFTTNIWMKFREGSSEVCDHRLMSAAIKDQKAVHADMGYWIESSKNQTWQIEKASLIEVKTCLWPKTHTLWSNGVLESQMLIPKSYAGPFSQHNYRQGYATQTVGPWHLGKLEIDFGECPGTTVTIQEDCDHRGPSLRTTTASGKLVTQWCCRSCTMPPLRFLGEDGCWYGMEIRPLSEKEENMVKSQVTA

B1: sdAb DD5 (VHH)
VHH: EVQLQASGGGLVQAGGSLRLSCAASGRAFSSETMGWFRQAPGKEREFVAAIWRIGGSTYNTDYADSVKGRFAISADRAKNTVDLQMNTLKPEDTAVYYCAGKMRGRSVNLYDYDYWGQGTQVTVSS
notes: source: E. coli Turner (DE3), pET22b, periplasmic, purified (Ni-Sepharose, SEC)
B2: sdAb DD7 (VHH)
VHH: EVQLVQSGGGSVQAGGSLRLSCAHSSITVPDYTIGWFRRAPGKGGEEVSLISMHGGRSWYAGSVKGRFAISRDSVKNTVYLQMNNLKPEDTDIYYCGGTTFGLAAAPNEYDSWGQGSQVTVSS
notes: as for B1
B3: sdAb DD6 (VHH)
VHH: B2 VHH with V5Q, Q6A, F37Y, S58T
notes: as for B1
B4: sdAb DD9 (VHH)
VHH: EVQLQASGGGLVQAGGSLRVSCAASGIAFTNYALAWYRQPPGKQREWVATVGVLGGTKYADSVKGRFAISRDNAKNTVILQMNSLKPVDTAVYFCAAVEWSNGRYYWDSWGQGTQVTVSA
notes: as for B1
B5: sdAb DH12 (VHH)
VHH: EVQLVESGGGSVQAGGSLRLSCAASERTFSYYFMGWFRQAPGKEREWVARIRWNGDGADYTDAVKDRFTISSDHAKNTVYLQMNSLKPEDTAVYYCAAANSIWKPTTRDYNYWGQGTQVSVSS
notes: as for B1
B6: sdAb DC4 (VHH)
VHH: EVQLQASGGGLVQAGGSLRLSCAASERTFSHYFVGWFRQAPGKEREFVARITWSGSNVEYEDAVKDRFTLSSDNAKNTVYLHMNSLKPEDTAVYYCAAANTIWTPTIRDYNVWGQGTQVTVSS
notes: as for B1
B7: sdAb DD1 (VHH)
VHH: EVQLQASGGGLVQAGGSLRVSCAATGIAFASYAVAWYRQAPGKQREWVATVGGLGGTKYVDSVKGRFTISRDNAKNAVTLQMNSLKPEDTAVYYCAAVEWDDGHYYWDTWGQGTRVTVSA
notes: as for B1
B8: sdAb DH4 (VHH)
VHH: B7 VHH with E1D, L11V, K64R
notes: as for B1
B9: sdAb DB5 (VHH)
VHH: DVQLQASGGGLVQDGGSLRLSCAASGLGFRIHSMGWYRQAPGKARDLVAVITDSGQTNYAPSVKGRFTISRESAGNTVYLQMNSLKPDDTAVYYCAVTTWDPHSYWGQGTQVTVSS
notes: as for B1

Residue numbers refer to the chain shown, from its start.

One test concerns the target T5, DENV-3 nonstructural protein 1 (NS1), recombinant (Dengue virus 3, strain Sri …, UniProt Q6YMS4).
T5 construct: also called DENV-3 NS1; NS1 from DENV-3; source: bought: Native Antigen Company (recombinant)
The test can be described thus: SPR. The settings on record: both partners purified.
On to B1, for which the equilibrium dissociation constant (Kd) – broadly, the constant that tells how readily two partners part at equilibrium – is 3.2 nM.
Still for that read-out and setting: under B2 stands 7 nM; under B3, 1.1 nM; under B4, 21.8 nM.
Turning to B5, the Kd worked out at 12.4 nM.
As for B6, the dissociation constant Kd was 31.6 nM.
Regarding B7, the equilibrium dissociation constant (Kd) is 85.8 nM.
Still for that read-out and setting: under B8 stands 23.8 nM; under B9, 4.4 nM.

The target in another test is T6, DENV-2 nonstructural protein 1 (NS1), recombinant (Dengue virus 2, strain …, UniProt P29990).
T6 construct: also called DENV-2 NS1; NS1 from DENV-2; source: bought: Native Antigen Company (recombinant)
The test can be described thus: SPR. The settings on record: both partners purified.
Take B1: the Kd is 4.5 nM.
Regarding B2, the Kd is 20.3 nM.
Still for that read-out and setting: under B3 stands 2 nM.
Take B4: the Kd came to 6.7 nM.
Still for that read-out and setting: for B5 the value was 9.8 nM; for B6, 42.1 nM.
On the same count and under the same terms, under B7 stands 15 nM.
In the case of B8, the Kd came out at 8.5 nM.
Regarding B9, the binding result is recorded as “no binding (tested: typically up to 300 nM)”.

The target of a further test is T7, DENV-1 nonstructural protein 1 (NS1), recombinant (Dengue virus 1, strain Nauru/West …, UniProt P17763).
T7 construct: also called DENV-1 NS1; NS1 from DENV-1; source: bought: Native Antigen Company (recombinant)
The test can be described thus: SPR. The settings on record: both partners purified.
As for B1, the dissociation constant Kd turned out to be 2.8 nM.
Regarding B2, the Kd came out at 5.4 nM.
As for B3, the Kd was 7.6 nM.
Still for that read-out and setting: for B4 the value was 18 nM.
Same read-out and setting: for B5 the value was 14.4 nM.
The same measure, in the same setting: under B6 stands 62 nM; under B7, 28.5 nM.
As for B8, the dissociation constant Kd is 10.3 nM.
Regarding B9, the binding result was “no binding (tested: typically up to 300 nM)”.

The next test deals with T8, DENV-4 nonstructural protein 1 (NS1), recombinant (Dengue virus 4, strain …, UniProt P09866).
T8 construct: also called DENV-4 NS1; NS1 from DENV-4; source: bought: Native Antigen Company (recombinant)
The experiment in a line: SPR. The settings on record: both partners purified.
With B1, the Kd came out at 24 nM.
Same read-out and setting: for B2 the value was 2.4 nM; for B3, 2.5 nM.
Consider B4, for which the equilibrium dissociation constant (Kd) stood at 34.8 nM.
Still for that read-out and setting: for B5 the value was 20.9 nM; for B6, 43 nM.
Turning to B7, the Kd is 7.8 nM.
The same measure, in the same setting: for B8 the value was 8.5 nM.
For the molecule B9, the binding result is “no binding (tested: typically up to 300 nM)”.

Another test has as its target T5, DENV-3 nonstructural protein 1 (NS1), …. The test can be described thus: SPR. The settings on record: both partners purified. This is another data set of the same source.
As to B1, the dissociation constant Kd worked out at 25.1 nM.
On to B2, for which the dissociation constant (Kd) came to 2.4 nM.
For B4, the Kd worked out at 3.1 nM.
With B7, the Kd stood at 17.7 nM.
On the same count and under the same terms, for B9 the value was 1.6 nM.

For a further test, the target named is T6, DENV-2 nonstructural protein 1 (NS1), …. The experiment in a line: SPR. The settings on record: both partners purified. The source holds these as a separate data set.
Turning to B1, the Kd came to 0.9 nM.
With B2, the dissociation constant (Kd) is 1.5 nM.
The same measure, in the same setting: for B4 the value was 3.5 nM; for B7, 2.3 nM.

The target of another test is T7, DENV-1 nonstructural protein 1 (NS1), …. The test can be described thus: SPR. The settings on record: both partners purified. The source holds these as a separate data set.
As for B1, the equilibrium dissociation constant (Kd) was determined as 4.2 nM.
For B2, the equilibrium dissociation constant (Kd) came out at 1.7 nM.
The same measure, in the same setting: for B4 the value was 2.7 nM; for B7, 2.2 nM.

A further test has as its target T8, DENV-4 nonstructural protein 1 (NS1), …. The experiment in a line: SPR. The settings on record: both partners purified. This is another data set of the same source.
For the molecule B1, the Kd came to 6.2 nM.
On the same count and under the same terms, under B2 stands 1.1 nM.
Same read-out and setting: under B4 stands 7.1 nM; under B7, 0.6 nM.

A further test concerns the target T1, DENV-1 nonstructural protein 1 (NS1), …. The experiment in a line: SPR; sdAb immobilized.
Conditions: not given
In general terms: SPR reads the build-up and loss of mass on a sensor chip optically.
As to B1, the koff (in general, the rate constant with which the complex falls apart) is 0.000318 s⁻¹.
Regarding B2, the koff worked out at 0.000423 s⁻¹.
B4: the off-rate (koff) worked out at 0.000289 s⁻¹.
On the same count and under the same terms, for B7 the value was 0.000206 s⁻¹.

For another test, the target named is T2, DENV-2 nonstructural protein 1 (NS1), …. The test can be described thus: SPR; sdAb immobilized.
Conditions: not given
In the case of B1, the koff is 7.99e-05 s⁻¹.
Still for that read-out and setting: for B2 the value was 0.000435 s⁻¹; for B4, 0.00034 s⁻¹; for B7, 0.000182 s⁻¹.

In a further test the target is T3, DENV-3 nonstructural protein 1 (NS1), …. The experiment in a line: SPR; NS1 immobilized.
Conditions: not given
On to B1, for which the off-rate constant (koff) worked out at 0.000269 s⁻¹.
Same read-out and setting: under B4 stands 0.000951 s⁻¹; under B5, 0.00323 s⁻¹; under B6, 0.00741 s⁻¹.

In the next test the target is T1, DENV-1 nonstructural protein 1 (NS1), …. The test can be described thus: SPR; NS1 immobilized.
Conditions: not given
Consider B1, for which the dissociation rate constant (koff) is 0.000383 s⁻¹.
As for B4, the koff turned out to be 0.00141 s⁻¹.
Regarding B5, the koff worked out at 0.00658 s⁻¹.
Still for that read-out and setting: under B6 stands 0.00889 s⁻¹.

Another test has as its target T2, DENV-2 nonstructural protein 1 (NS1), …. The test can be described thus: SPR; NS1 immobilized.
Conditions: not given
With B1, the koff is 0.000347 s⁻¹.
As to B4, the koff turned out to be 0.000545 s⁻¹.
For B5, the off-rate (koff) was found to be 0.00333 s⁻¹.
On the same count and under the same terms, for B6 the value was 0.00604 s⁻¹.

Another test addresses T4, DENV-4 nonstructural protein 1 (NS1), …. The experiment in a line: SPR; NS1 immobilized.
Conditions: not given
Take B1: the dissociation rate constant (koff) stood at 0.00193 s⁻¹.
Regarding B4, the koff was 0.00428 s⁻¹.
B5: the koff was determined as 0.00604 s⁻¹.
Same read-out and setting: for B6 the value was 0.00501 s⁻¹.
